Test results from patent publication US20210277137A1.

Target: human CD40 on cells (human) (UniProt P25942)
Test: cell-based or functional assay

human CD40 on cells (human), sequence (P25942 21-277 limits assumed): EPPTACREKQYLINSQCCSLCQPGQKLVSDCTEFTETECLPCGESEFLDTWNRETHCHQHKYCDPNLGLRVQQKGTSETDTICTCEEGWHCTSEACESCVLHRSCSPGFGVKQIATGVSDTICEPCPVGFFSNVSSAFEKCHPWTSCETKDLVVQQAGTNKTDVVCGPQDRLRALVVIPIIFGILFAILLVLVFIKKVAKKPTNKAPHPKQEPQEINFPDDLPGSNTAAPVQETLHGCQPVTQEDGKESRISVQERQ

Substance: literature CD40 antibody G28-5
- Monocyte activation (THP1-Xblue, OD655): 0.12 OD655
- moDC activation (IL-12p70, pg/mL): 139 pg/mL
